Data published in patent US20180037638A1 (SORRENTO THERAPEUTICS, published 2018).

B1: C7 (antibody, V domains shown)
VH: EVQLVQSGAEMKKPGASMKVSCKTSGYTFARKYMHWLRQAPGQGLEWMGIINPTGGTKSYAPKFQGRVTMTSDMSTNTVYMELNSLRSEDTAVYYCVSDDEEPVWGQGTMVTVSS
VL: QSALTQPPSVSKGLRQTATLTCTGNSNNVGSQGAAWLQQHQGHPPKVLSYRNNNRPSGISERFSASRSGNTASLTITGLQPEDEGDYYCSAWDSSLSAPVFGGGTKLTVL
B2: E7 (antibody, V domains shown)
VH: EVQLVQSGAEVKKPGASVRVSCKTSGYSFTSYDINWVRQTTGQGLEWMGWVNPTSGSTGYAQKFQGRVTMTANTAINTAYMELRDLRSEDTAVYFCVRDVPFDPWGQGTLVTVSS
VL: LQSVLTQPASVSGSPGQSITISCTGTSSDVGKYTFVSWYQQHPGKAPKVMVYEVNKRPLGVSPRFSGSKSGNTAYLTISGLQAEDEADYYCSSYTSSSTVVFGGGTKLTVL

What was measured:
AIP1 = AIP1 (Staphylococcus aureus); assay: cell-based or functional assay
AIP4 = AIP4 (Staphylococcus aureus); assay: cell-based or functional assay

Row | Binder | Inhibition of AIP1 QS (IC50; nM), agr-driven YFP reporter strain USA300-LAC (AIP1) [nM] | Inhibition of AIP4 QS (IC50; nM), agr-driven YFP reporter strain MnTG (AIP4) [nM]
1 | B1 | 110 | 86
2 | B2 | 91.1 | 53.5
